By stoichiometry N is commonly meant the number of molecules, sites or subunits per partner or assembly.

Data set [1] deals with the molecule itself. Nature of the data set: SEC-MALS. (In gel filtration, larger molecules generally elute earlier.)
Data set [2] concerns the molecule itself. As to the kind of experiment: SEC.
Data set [3] deals with the molecule itself. As to the kind of experiment: crystal structure.

B1: mouse lipin 1 M-Lip^xtal domain (as used for SEC-MALS) (domain or fragment, UniProt Q91ZP3-2 458-548, looked up)
chain: SLRDLPSIAISLCGGLSDHREITKDAFLEQAVSYQQFADNPAIIDDPNLVVKVGNKYYNWTTAAPLLLAMQAFQKPLPKATVESIMRDKMP
With B1, the “stoichiometry N” value in data set [1] is 2.

B2: full-length mouse lipin 1α (purified from Sf9 cells) (enzyme, UniProt Q91ZP3-2 1-891, looked up)
chain: MNYVGQLAGQVFVTVKELYKGLNPATLSGCIDIIVIRQPNGSLQCSPFHVRFGKMGVLRSREKVVDIEINGESVDLHMKLGDNGEAFFVQETDNDQEIIPMYLATSPILSEGAARMESQLKRNSVDRIRCLDPTTAAQGLPPSDTPSTGSLGKKRRKRRRKAQLDNLKRDDNVNSSEDEDMFPIEMSSDEDTAPMDGSRTLPNDVPPFQDDIPKENFPSISTHPQSASYPSSDREWSPSPSPSGSRPSTPKSDSELVSKSADRLTPKNNLEMLWLWGELPQAAKSSSPHKMKESSPLGSRKTPDKMNFQAIHSESSDTFSDQSPTMARGLLIHQSKAQTEMQFVNEEDLESLGAAAPPSPVAEELKAPYPNTAQSSSKTDSPSRKKDKRSRHLGADGVYLDDLTDMDPEVAALYFPKNGDPGGLPKQASDNGARSANQSPQSVGGSGIDSGVESTSDSLRDLPSIAISLCGGLSDHREITKDAFLEQAVSYQQFADNPAIIDDPNLVVKVGNKYYNWTTAAPLLLAMQAFQKPLPKATVESIMRDKMPKKGGRWWFSWRGRNATIKEESKPEQCLTGKGHNTGEQPAQLGLATRIKHESSSSDEEHAAAKPSGSSHLSLLSNVSYKKTLRLTSEQLKSLKLKNGPNDVVFSVTTQYQGTCRCEGTIYLWNWDDKVIISDIDGTITRSDTLGHILPTLGKDWTHQGIAKLYHKVSQNGYKFLYCSARAIGMADMTRGYLHWVNERGTVLPQGPLLLSPSSLFSALHREVIEKKPEKFKVQCLTDIKNLFFPNTEPFYAAFGNRPADVYSYKQVGVSLNRIFTVNPKGELVQEHAKTNISSYVRLCEVVDHVFPLLKRSHSCDFPCSDTFSNFTFWREPLPPFENQDMHSASA
In the case of B2, the binding result in data set [2] is reported as “binds”.

B3: mouse lipin 2 M-Lip^xtal domain (domain or fragment, UniProt Q99PI5 459-549, looked up)
chain: SAMDLPDVTLSLCGGLSENGEISKEKFMEHIITYHEFAENPGLIDNPNLVIRIYNRYYNWALAAPMILSLQVFQKSLPKATVESWVKDKMP
B3: in data set [3], the binding result is “binds”.

These data come from doi:10.1101/2021.03.19.436211 (bioRxiv, 2021).
